Results taken from patent US20200199207A1 (MABYLON, published 2020).
Blank lines part the entries; values can stand above or below the binder they belong to.

What was measured:
Test in all cases: competition ELISA, peptide in solution vs coated Ara h 2
Peptide 18 = target: T1, Peptide 18 (peanut)
T1 construct: also called linear Ara h 2 peptide 18
T1 peptide: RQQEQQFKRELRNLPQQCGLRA
Method: (§1) A competition ELISA was used to evaluate binding of exemplary anti-peanut antibodies of the present invention to linear Ara h 2 epitopes. Serial dilutions of linear Ara h 2 epitopes (100 μM down to 0.19 nM; peptides with a length of 20 amino acids and an overlap of 12 amino acids between the peptides) were pre-incubated with exemplary anti-peanut antibodies ([…]) for 1 hour at room temperature. The pre-incubated antibody-epitope mixtures were subsequently incubated on plates coated with full length Ara h 2 (coating overnight at 4° C. with 0.05 μg/ml Ara h 2 in PBS, followed by wash out and blocking with 2% BSA in PBS). The plates were subsequently washed and binding of MAbs to Ara h 2 was detected HRP-conjugated goat anti human Fc-gamma-specific antibody (Jackson ImmunoResearch, West Grove, Pa., USA) followed by measurement of the HRP activity using a tetramethylbenzidine substrate solution (TMB, Sigma-Aldrich Chemie GmbH, Buchs, Switzerland). As may be seen from Table 5, exemplary anti-peanut allergen antibody 32B10 binds to different linear Ara h 2 epitopes than 12G10 and 37D5.

Peptide 10 = target: T2, Peptide 10 (peanut)
T2 construct: also called linear Ara h 2 peptide 10
T2 peptide: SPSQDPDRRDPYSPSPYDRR
Method: as §1

Peptide 2 = target: T3, Peptide 2 (peanut)
T3 construct: also called linear Ara h 2 peptide 2
T3 peptide: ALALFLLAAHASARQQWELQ
Method: as §1

Peptide 9 = target: T4, Peptide 9 (peanut)
T4 construct: also called linear Ara h 2 peptide 9
T4 peptide: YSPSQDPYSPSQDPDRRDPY
Method: as §1

Peptide 13 = target: T5, Peptide 13 (peanut)
T5 construct: also called linear Ara h 2 peptide 13
T5 peptide: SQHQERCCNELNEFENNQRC
Method: as §1

Peptide 15 = target: T6, Peptide 15 (peanut)
T6 construct: also called linear Ara h 2 peptide 15
T6 peptide: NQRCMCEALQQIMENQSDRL
Method: as §1

Peptide 7 = target: T7, Peptide 7 (peanut)
T7 construct: also called linear Ara h 2 peptide 7
T7 peptide: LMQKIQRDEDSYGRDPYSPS
Method: as §1

Peptide 4 = target: T8, Peptide 4 (peanut)
T8 construct: also called linear Ara h 2 peptide 4
T8 peptide: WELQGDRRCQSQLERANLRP
Method: as §1

Peptide 12 = target: T9, Peptide 12 (peanut)
T9 construct: also called linear Ara h 2 peptide 12
T9 peptide: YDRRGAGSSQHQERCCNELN
Method: as §1

Peptide 1 = target: T10, Peptide 1 (peanut)
T10 construct: 20-mer of Ara h 2, overlap of 12 with its neighbours; also called linear Ara h 2 peptide 1
T10 peptide: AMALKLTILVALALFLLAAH
Method: as §1

Peptide 14 = target: T11, Peptide 14 (peanut)
T11 construct: also called linear Ara h 2 peptide 14
T11 peptide: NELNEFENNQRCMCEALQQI
Method: as §1

Peptide 17 = target: T12, Peptide 17 (peanut)
T12 construct: also called linear Ara h 2 peptide 17
T12 peptide: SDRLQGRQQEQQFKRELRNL
Method: as §1

Peptide 11 = target: T13, Peptide 11 (peanut)
T13 construct: also called linear Ara h 2 peptide 11
T13 peptide: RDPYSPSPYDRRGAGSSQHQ
Method: as §1

Peptide 19 = target: T14, Peptide 19 (peanut)
T14 construct: also called linear Ara h 2 peptide 19
T14 peptide: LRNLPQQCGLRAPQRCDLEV
Method: as §1

Peptide 6 = target: T15, Peptide 6 (peanut)
T15 construct: also called linear Ara h 2 peptide 6
T15 peptide: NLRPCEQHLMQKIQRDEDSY
Method: as §1

Peptide 20 = target: T16, Peptide 20 (peanut)
T16 construct: also called linear Ara h 2 peptide 20
T16 peptide: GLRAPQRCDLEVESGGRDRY
Method: as §1

Peptide 16 = target: T17, Peptide 16 (peanut)
T17 construct: also called linear Ara h 2 peptide 16
T17 peptide: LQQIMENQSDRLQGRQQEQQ
Method: as §1

Peptide 5 = target: T18, Peptide 5 (peanut)
T18 construct: also called linear Ara h 2 peptide 5
T18 peptide: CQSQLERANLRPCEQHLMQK
Method: as §1

Peptide 3 = target: T19, Peptide 3 (peanut)
T19 construct: also called linear Ara h 2 peptide 3
T19 peptide: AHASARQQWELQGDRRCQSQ
Method: as §1

Peptide 8 = target: T20, Peptide 8 (peanut)
T20 construct: also called linear Ara h 2 peptide 8
T20 peptide: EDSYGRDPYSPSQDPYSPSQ
Method: as §1

binding result (Peptide 18): no binding (tested: 100 µM) | binding result (Peptide 10): no binding (tested: 100 µM) | binding result (Peptide 2): no binding (tested: 100 µM) | binding result (Peptide 9): no binding (tested: 100 µM) | binding result (Peptide 13): no binding (tested: 100 µM) | binding result (Peptide 15): no binding (tested: 100 µM) | binding result (Peptide 7): no binding (tested: 100 µM) | binding result (Peptide 4): no binding (tested: 100 µM) | binding result (Peptide 12): no binding (tested: 100 µM) | binding result (Peptide 1): no binding (tested: 100 µM) | binding result (Peptide 14): no binding (tested: 100 µM) | binding result (Peptide 17): no binding (tested: 100 µM) | binding result (Peptide 11): no binding (tested: 100 µM) | binding result (Peptide 19): no binding (tested: 100 µM) | binding result (Peptide 6): no binding (tested: 100 µM) | binding result (Peptide 20): no binding (tested: 100 µM) | binding result (Peptide 16): no binding (tested: 100 µM) | binding result (Peptide 5): no binding (tested: 100 µM) | binding result (Peptide 3): no binding (tested: 100 µM) | binding result (Peptide 8): no binding (tested: 100 µM)
B1: h7G6 (antibody, V domains shown)
VH: QVQLVESGGGVVQPGRSLRLSCAASGIAFNDYTMHWVRRSPDKGLEWVAAISYGGTNKYYADSVKGRFTISRDSSKNTLFLQMDSLRVEDTAVYYCARDSGYRSLLHWGQGTLVTVSS
VL: EIVLTQSPLSLPVTPGEPASISCRSSQSLVHRNGYNYLDWYLQKPGQSPQLLIYMASKRASGVPDRFSGSGSGTEFTLKISRVEAEDVGIYYCMQALQTWTFGQGTKVEVN
notes: Recombinant human IgG; also called hMAb 7G6

binding result (Peptide 18): no binding (tested: 100 µM) | binding result (Peptide 10): no binding (tested: 100 µM) | binding result (Peptide 2): no binding (tested: 100 µM) | binding result (Peptide 9): no binding (tested: 100 µM) | binding result (Peptide 13): no binding (tested: 100 µM) | binding result (Peptide 15): no binding (tested: 100 µM) | binding result (Peptide 7): no binding (tested: 100 µM) | binding result (Peptide 4): no binding (tested: 100 µM) | binding result (Peptide 12): no binding (tested: 100 µM) | binding result (Peptide 1): no binding (tested: 100 µM) | binding result (Peptide 14): no binding (tested: 100 µM) | binding result (Peptide 17): no binding (tested: 100 µM) | binding result (Peptide 11): no binding (tested: 100 µM) | binding result (Peptide 19): no binding (tested: 100 µM) | binding result (Peptide 6): no binding (tested: 100 µM) | binding result (Peptide 20): no binding (tested: 100 µM) | binding result (Peptide 16): no binding (tested: 100 µM) | binding result (Peptide 5): no binding (tested: 100 µM) | binding result (Peptide 3): no binding (tested: 100 µM) | binding result (Peptide 8): no binding (tested: 100 µM)
B2: h2F8 (antibody, V domains shown)
VH: EVQLVESGGGLVKPGGSLRLSCAASGFIFSDYNMNWVRQAPGKGLEWVSSITRSSRTIYYADSVKGRFTISRDNAKNSLHLQMNSLRDADTAVYYCAREDFDVSTGPYYMDVWGNGTTVIVSS
VL: EIVLTQSPGTLSLSPGERATLSCRASQSVSNMFLVWYQQKPGQAPRLLMYGASTRATDIPDRFSGSGSGTDFTLTISRLEPEDFAVYYCQQNGNSPYTFGQGTKLEIK
notes: Recombinant human IgG; also called hMAb 2F8
